Measured values taken from the RNAGym collection of RNA variant scans (doi:10.1021/acssynbio.7b00057).

B1: Pistol ribozyme (parent)
chain: GGGUCGUUGUUCCAUAAUCGCGUGGAUAUGGCACGCAAGUUUCUACCGGGCACCGUAAAUGUCCGACUGGAGCCGUUCGGGCGGCUAUAAACAGACCUCAGGCCCGAAGCGUGGCGGCACCUGCCGCCGGUGGUAAAAAAGAUCGGAAGAGCACACGUCU

Variants of: B1
Test: aptazyme ON/OFF ratio, guanine; higher = stronger switching; co-transcriptional cleavage with and without guanine

Variant	aptazyme ON/OFF ratio
GGGUCGCUGUCGUAUAAUCGCGUGGAUAUGGCACGCAAGUUUCUACCGGGCACCGUAAAUGUCCGACUGGAGCCGUUCGGGCGGCUAUAAACAGACCUCAGGCCCGAAGCGUGGCGGCACCUGCCGCCGGUGGUAAAAAAGAUCGGAAGAGCACACGUCU	1.22
GGGUCGCUGUGUGAUAAUCGCGUGGAUAUGGCACGCAAGUUUCUACCGGGCACCGUAAAUGUCCGACUGGAGCCGUUCGGGCGGCUAUAAACAGACCUCAGGCCCGAAGCGUGGCGGCACCUGCCGCCGGUGGUAAAAAAGAUCGGAAGAGCACACGUCU	1.06
GGGUCGCUGUGUUAUAAUCGCGUGGAUAUGGCACGCAAGUUUCUACCGGGCACCGUAAAUGUCCGACUGGAGCCGUUCGGGCGGCUAUAAACAGACCUCAGGCCCGAAGCGUGGCGGCACCUGCCGCCGGUGGUAAAAAAGAUCGGAAGAGCACACGUCU	1.2
GGGUCGCUGUGUAAUAAUCGCGUGGAUAUGGCACGCAAGUUUCUACCGGGCACCGUAAAUGUCCGACUGGAGCCGUUCGGGCGGCUAUAAACAGACCUCAGGCCCGAAGCGUGGCGGCACCUGCCGCCGGUGGUAAAAAAGAUCGGAAGAGCACACGUCU	1.13
GGGUCGCUGUGGCAUAAUCGCGUGGAUAUGGCACGCAAGUUUCUACCGGGCACCGUAAAUGUCCGACUGGAGCCGUUCGGGCGGCUAUAAACAGACCUCAGGCCCGAAGCGUGGCGGCACCUGCCGCCGGUGGUAAAAAAGAUCGGAAGAGCACACGUCU	1.31
GGGUCGCUGUGACAUAAUCGCGUGGAUAUGGCACGCAAGUUUCUACCGGGCACCGUAAAUGUCCGACUGGAGCCGUUCGGGCGGCUAUAAACAGACCUCAGGCCCGAAGCGUGGCGGCACCUGCCGCCGGUGGUAAAAAAGAUCGGAAGAGCACACGUCU	1.18
GGGUCGCUGUGUCAUAAUCGCGUGGAUAUGGCACGCAAGUUUCUACCGGGCACCGUAAAUGUCCGACUGGAGCCGUUCGGGCGGCUAUAAACAGACCUCAGGCCCGAAGCGUGGCGGCACCUGCCGCCGGUGGUAAAAAAGAUCGGAAGAGCACACGUCU	1.26
GGGUCGGUGUUUGAUAAUCGCGUGGAUAUGGCACGCAAGUUUCUACCGGGCACCGUAAAUGUCCGACUGGAGCCGUUCGGGCGGCUAUAAACAGACCUCAGGCCCGAAGCGUGGCGGCACCUGCCGCCGGUGGUAAAAAAGAUCGGAAGAGCACACGUCU	1.21
GGGUCGGUGUUUAAUAAUCGCGUGGAUAUGGCACGCAAGUUUCUACCGGGCACCGUAAAUGUCCGACUGGAGCCGUUCGGGCGGCUAUAAACAGACCUCAGGCCCGAAGCGUGGCGGCACCUGCCGCCGGUGGUAAAAAAGAUCGGAAGAGCACACGUCU	1.21
GGGUCGGUGUUAUAUAAUCGCGUGGAUAUGGCACGCAAGUUUCUACCGGGCACCGUAAAUGUCCGACUGGAGCCGUUCGGGCGGCUAUAAACAGACCUCAGGCCCGAAGCGUGGCGGCACCUGCCGCCGGUGGUAAAAAAGAUCGGAAGAGCACACGUCU	1.21
GGGUCGGUGUUAAAUAAUCGCGUGGAUAUGGCACGCAAGUUUCUACCGGGCACCGUAAAUGUCCGACUGGAGCCGUUCGGGCGGCUAUAAACAGACCUCAGGCCCGAAGCGUGGCGGCACCUGCCGCCGGUGGUAAAAAAGAUCGGAAGAGCACACGUCU	1.22
GGGUCGGUGUUAGAUAAUCGCGUGGAUAUGGCACGCAAGUUUCUACCGGGCACCGUAAAUGUCCGACUGGAGCCGUUCGGGCGGCUAUAAACAGACCUCAGGCCCGAAGCGUGGCGGCACCUGCCGCCGGUGGUAAAAAAGAUCGGAAGAGCACACGUCU	1.11
GGGUCGCUGUGAAAUAAUCGCGUGGAUAUGGCACGCAAGUUUCUACCGGGCACCGUAAAUGUCCGACUGGAGCCGUUCGGGCGGCUAUAAACAGACCUCAGGCCCGAAGCGUGGCGGCACCUGCCGCCGGUGGUAAAAAAGAUCGGAAGAGCACACGUCU	1.16
GGGUCGCUGUGAGAUAAUCGCGUGGAUAUGGCACGCAAGUUUCUACCGGGCACCGUAAAUGUCCGACUGGAGCCGUUCGGGCGGCUAUAAACAGACCUCAGGCCCGAAGCGUGGCGGCACCUGCCGCCGGUGGUAAAAAAGAUCGGAAGAGCACACGUCU	1.17
GGGUCGCUGUGAUAUAAUCGCGUGGAUAUGGCACGCAAGUUUCUACCGGGCACCGUAAAUGUCCGACUGGAGCCGUUCGGGCGGCUAUAAACAGACCUCAGGCCCGAAGCGUGGCGGCACCUGCCGCCGGUGGUAAAAAAGAUCGGAAGAGCACACGUCU	1.17
GGGUCGGUGUUGAAUAAUCGCGUGGAUAUGGCACGCAAGUUUCUACCGGGCACCGUAAAUGUCCGACUGGAGCCGUUCGGGCGGCUAUAAACAGACCUCAGGCCCGAAGCGUGGCGGCACCUGCCGCCGGUGGUAAAAAAGAUCGGAAGAGCACACGUCU	1.08
GGGUCGGUGUUGUAUAAUCGCGUGGAUAUGGCACGCAAGUUUCUACCGGGCACCGUAAAUGUCCGACUGGAGCCGUUCGGGCGGCUAUAAACAGACCUCAGGCCCGAAGCGUGGCGGCACCUGCCGCCGGUGGUAAAAAAGAUCGGAAGAGCACACGUCU	1.17
GGGUCGGUGUUGGAUAAUCGCGUGGAUAUGGCACGCAAGUUUCUACCGGGCACCGUAAAUGUCCGACUGGAGCCGUUCGGGCGGCUAUAAACAGACCUCAGGCCCGAAGCGUGGCGGCACCUGCCGCCGGUGGUAAAAAAGAUCGGAAGAGCACACGUCU	1.14
